Experimental data taken from the DeepSol protein solubility set.

assay: soluble on expression in E. coli; label from the status in PepcDB or PDB records

Row | Sequence | soluble on expression in E. coli
1 | MSLASTEEETQAVMKVYSKEDYSVVNRFESHGGGWGYSAHSVEAIRFSADTDILLGGLGLFGGRGEYTAKIKLFELGPDGGDHETDGDLLAETDVLAYDCAAREKYAMMFDEPVLLQAGWWYVAWARVSGPSSDCGSHGQASITTDDGVIFQFKSSKKSNNGTDVNAGQIPQLLYRLPTSDGSTSKGKQQTSEPVHILKRSFARTVSVECFESLLSILHWSWTTLVLGVEELRGLKGFQFTATLLDLERLRFVGTCCLRLLRVYTCEIYPVSATGKAVVEETSKLAECIGKTRTLLRKILSEGVDHCMVKLDNDPQGYLSQPLRLLEAVLQECHNTFTACFHSFYPTPALQWACLCDLLNCLDQEANFKTSSSRLLAAVMSALCHTSVKLTSLFPIAYDGEVLLRSIVKQVSTENDSTLVHRFPLLVGHMEKLSQSEENISGMTSFREVLEKMLVIVVLPVRNSLRRESELFSSHLVSNTCGLLASIVSELTASALGSEVDGLNSLHSVKASANRFTKTSQGRSWNTGNGSPDAICFAVDKPGIVVVGFAVYGGGGIHEYELEVLVDDSEHAGDSTHSHRWTSLELVKGTYTTDDSPSDIAEIRLDKVVPLKENVKYAVRLRNYGSRTANGDGGMTTVQCPDGVTFTFSTCSLSSNGTNQTRGQIPQILYYRSEEGHHHHHH | soluble
2 | MSLATLKDVAELAGVGLSTASRAISGKGPVSADAAARVKAAIAELNFRPSSIGRAMATQQLGIIGLFVPTFFGSYYGTILKQTDLELRAVHRHVVVATGCGESTPREQALEAVRFLIGRDCDGVVVISHDLHDEDLDELHRMHPKMVFLNRAFDALPDASFCPDHRRGGELAAATLIEHGHRKLAVISGPFTASDNVERLDGFFDELARHGIARDSVPLIESDFSPEGGYAATCQLLESKAPFTGLFCANDTMAVSALARFQQLGISVPGDVSVIGYDDDYSAAYAAPALTSVHIPTAELTQNAVRWLINQCYGTKWEIFREFPVTVSMRASVAREGHHHHHH | soluble
3 | MSLATQAVSLARVRGPLALAALTLLGACSTRTAVPTPAPVAGSPSVAPESPRPPEVASGYRTGMTTAYAEQHMAAAANPLAAEAGRRILRQGGSAIDAAIAMQAVLTLVEPQASGIGGGAFLLYWDGKRVQAYDGWETAPAGADENLFLRPDGTSMGLSEARIGGRAVGVPGVLRALELAHRRYGKLPWTRLLQPAVELAEQGFPVSPRLYTQIAADPFIAGSPEMAAYFLTPQGKPKPVGTIVRNPQLAQTLREIARHGPGAFYAGPIAADIVKRVSGGANPGTLSLADLRGYRAKERDPICADYQRWKVCGMPPPSSGGIAIAQMLGTLQALAARDPKYALAAMAPRETTRAAGLEPSVDAVHVVSEAGRQADADRGLYVADADFVPVNVKGLTDPGYLTLRAGLIGDRSTGRADPGTPPGTSIALAPDRSPPRVSTSQIVAVDNAGGAVSMTTAIDSDFGAHLMVRGFVLNSGLTDFSFVPNDGGKPVANRVQAGKRPRSSMAPTLVFERDSGRLVAALGSPGGSQSIEYVSKTLIGLLDWDMDVQSAINLPNFGSRNGPTEVERGLVTQPLVQGLKARGHDVAQIEMTSGTQAIVRRRRDDGRWGWAGGADPRREGVALGDEGHHHHHH | not soluble
4 | MSLAWAPKNYIEKVVAIYDYTKDKDDELSFKEGAIIYVIKKNDDGWFEGVCNRVTGLFPGNYVESIMHYTDEGHHHHHH | soluble
5 | MSLAYQSEYALENEMMNQLEQLGYERVTIRDNKQLLDNFRTILNERHADKLEGNPLTDKEFQRLLTMIDGKSIFESARILRDKLPLRRDDESEIYLSFLDTKSWCKNKFQVTNQVSVEDTYKARYDVTILINGLPLVQVELKRRGIDINEAFNQVKRYRKQNYTGLFRYIQMFIISNGVETRYFSNNDSELLKSHMFYWSDEGHHHHHH | not soluble
6 | MSLAYTKKKYTPKTKEQIKEETKEIMDKVLTDITKYYRSPEDMLELANFMAKFSNYSPKNMQLIRSQFENAYACANFKAFKDAGFHVNKGETAMKVFHPYVKEYVRDPRTKLAIPLGKLTEEQKKQVKNGELKVEKQTNYYLKATAFDISQTNAKPEDLPKIFPNRQFNFEINDENKELLKIGIQALAEKENIKIKTMGQGALVKELGNVHGAYVQVLDSSYSQIVMNPRNTETNELSVAIHELAHAKLHGNKIDPLEHTPTKEFEAELTSYIVCKHYGMDTSESAVPYIAQWTKNGQDIEEKDKSIMRVHETASSFINTIDKKISELQREGHHHHHH | soluble
7 | MSLCRFVAYLGRPTLLENVLVRPKNSIIMQSLHARETKYRTNGDGFGLGWYSPEVSSDPALFTSVYPAWNDRNLLHLTAKIQSPCFFAHVRSASAGGVTNYNCHPFIYGDWMLMHNGEINDFIDVKRHIRHLLDDDIYHWVKGQTDSEHLFGLFLQLAKGRDITQLSVAADVLQETINKILEVIGQFGHSGPSYFNICLTNGKKIIATRYCSHEKKKPLTLHYLIGYVLSTQGLWIKEEGNPAYVVVSSERLNDLDEGWEDVPPQHMILIDENKNIQLRPLQTLGEGHHHHHH | soluble
8 | MSLCVFLTSEVNMGLFNFVKDAGEKLWDAVTANHDKDDQAKKVQEHLNKTGIPDTDKVNVQIADGKATVTGDGLSQEAKEKILVAVGNIAGISSVDDQVKTTTPAAESQFYTVKSGDTLSAISKQVYGNANLYNKIFEANKPMLKSPEKIYPGQVLRIPEEGHHHHHH | not soluble
9 | MSLDEGRTPILGEHPRPTMVRDNCTMLNGWWDYAIVSIPEDETAPKWRKTAAMLTRDEAVRAVKETAIPQTFDGKILVPFSPESALSGVHQTIYPDNLLWYRTVVHPVTLGGEETVRQIGDANRLILHFEAVDYVCACYVNGQLAGTHVGGYLPFDVDISAFIDPDDAFEIALCVYDPNDSGTQLRGKQKIEREGIWYTAQSGIWQSVWLEIVPEAYLRTLTLKGASDGKLFVRAEIGGDKPNAKLHIVVTDPADGTVVADETLPAGVRKVRAEIATAAEHLWSPADPYLYDVRAELRYGSAKPAETAGDAAVVQSQPMDVVSSYCAFRSVEIKPDTKGVARFHLNGKPLFVKGVLDQGYWPDGLMTAPDDEALTHDITAMKNAGFNMLRKHIKIESARWYYHCDRLGMLVWQDAVSGGGTDGEYNAWTTNRKPTLIRSTWNKFRDDTAKHFTALGADDPIYRRDWSRTCDAMVHMLGGHPSIVTWTLFNEGWGQFDACDATERIHALDPTRPIDATSGWYDQHCGDYHSVHNYFRPLEIYPDKGPLRGYVAEFEKKHRRRRRAAHYVVLPVARHGVRAFVISEFGGLAQLVPEHAAVSRAYGYGEYDSIDDWRAAVRSVLASAAALESRGLAGYVYTQVSDVEEELNGLLTYDRRVDKFAEEGHHHHHH | not soluble
10 | MSLDFKAIQALTANDMAKVNETIHAQLNSDVSLINQLGFYIISGGGKRLRPLLAVLSAKALGYQGSHHTTAAAFIEFIHTATLLHDDVVDESDLRRGKATANAAFGNAASVLVGDFIYTRSFQMMTELGSMKILKLMSDAVNVIAEGEVQQLMNCNDPDTTEASYMQVIYSKTARLFEAATQIGAILCDASPEVELAMQNYGKYLGTAFQLIDDVMDYTSDGDEMGKNVGDDLAEGKPTLPLLYAMQHGNPEQAAMIREAIEKANGMSRLNEILAAMEQTGSLQYTIEKALHEADKAIAELAILPESEYKQALITLAHMAVNRSKEGHHHHHH | soluble
11 | MSLDFRDYMVKQVAARSGYQLQLDGPLRWHVWPQLSILSGRMSLTAQGASQPLVRADNMRLDVALLPLLSHQLSVKQVMLKGAVIQLTPQTEAVRSEDAPVAPRDNTLPDLSDDRGWSFDISSLKVADSVLVFQHEDDEQVTIRNIRLQMEQDPQHRGSFEFSGRVNRDQRDLTISLNGTVDASDYPHDLTAAIEQINWQLQGADLPKQGIQGQGSFQAQWQESHKRLSFNQISLTANDSTLSGQAQVTLTEKPEWQLRLQFPQLNLDNLIPLNETANGENGAAQQGQSQSTLPRPVISSRIDEPAYQGLQGFTADILLQASNVRWRGMNFTDVATQMTNKSGLLEITQLQGKLNGGQVSLPGTLDATSINPRINFQPRLENVEIGTILKAFNYPISLTGKMSLAGDFSGADIDADAFRHNWQGQAHVEMTDTRMEGMNFQQMIQQAVERNGGDVKAAENFDNVTRLDRFTTDLTLKDGVVTLNDMQGQSPVLALTGEGMLNLADQTCDTQFDIRVVGGWNGESKLIDFLKETPVPLRVYGNWQQLNYSLQVDQLLRKHLQDEAKRRLNDWAERNKDSRNGKDVKKLLEKMEGHHHHHH | soluble
